From US20110300138A1 (published 2011)
Values belong to the molecule of their own block, whether it stands above or below them.

Assays:
[1] = biological target: human TSH receptor (full length) coated on ELISA plate wells (human) (UniProt P16473); test: TSH-biotin binding inhibition ELISA, TSHR coated wells; 0.003 µg/mL in assay buffer + 100 µg/mL 5B3 IgG
[2] = biological target: TSH receptor (TSHR) coated on tubes (human) (UniProt P16473); test: inhibition of 125I-K1-70 IgG binding to TSHR coated tubes; sample 0.003 µg/mL in HBD serum pool; duplicate determination
[3] = biological target: TSH receptor (full length human TSHR) (human) (UniProt P16473); test: competition ELISA: inhibition of M22 Fab-peroxidase (competitor) binding to TSHR coated wells; negative control at 0.01 µg/mL diluted in assay buffer
[4] = biological target: thyroid stimulating hormone receptor (TSHR), full length human TSHR (human) (UniProt P16473); test: TSH-biotin competition ELISA, TSHR coated wells; negative control, 0.01 µg/mL in assay buffer
[5] = biological target: TSHR (thyroid stimulating hormone receptor), full length human (human) (UniProt P16473); test: negative control; competitor ^125I-K1-70 IgG, TSHR coated tubes; 0.01 µg/mL in HBD
[6] = biological target: thyroid stimulating hormone receptor (TSHR), full length human TSHR (human) (UniProt P16473); test: TSH-biotin competition ELISA, TSHR coated wells; negative control, 0.1 µg/mL in HBD serum
[7] = biological target: TSH receptor (TSHR), full length human, coated on tubes (human) (UniProt P16473); test: inhibition of 125I-TSH binding to TSHR coated tubes; 0.01 µg/mL, diluted in HBD serum pool; mean of duplicates
[8] = biological target: TSH receptor (full length human TSHR) (human) (UniProt P16473); test: competition ELISA: inhibition of M22 Fab-peroxidase (competitor) binding to TSHR coated wells; negative control at 10 µg/mL diluted in HBD serum pool
[9] = biological target: human TSH receptor (full length) coated on ELISA plate wells (human) (UniProt P16473); test: TSH-biotin binding inhibition ELISA, TSHR coated wells; 0.1 µg/mL in assay buffer; negative control MAb
[10] = biological target: human thyroid stimulating hormone receptor (TSHR), full length (human) (UniProt P16473); test: 125I-K1-70 Fab (competitor) binding to TSHR coated tubes; negative control MAb 0.001 µg/mL in assay buffer
[11] = biological target: TSHR (thyroid stimulating hormone receptor), full length human (human) (UniProt P16473); test: negative control; competitor ^125I-K1-70 IgG, TSHR coated tubes; 10 µg/mL in assay buffer
[12] = biological target: thyroid stimulating hormone receptor (TSHR), full length human TSHR (human) (UniProt P16473); test: TSH-biotin competition ELISA, TSHR coated wells; 0.01 µg/mL in assay buffer
[13] = biological target: thyroid stimulating hormone receptor (TSHR), full length human TSHR (human) (UniProt P16473); test: TSH-biotin competition ELISA, TSHR coated wells; 10 µg/mL in assay buffer
[14] = biological target: TSH receptor (full length human TSHR) (human) (UniProt P16473); test: competition ELISA: inhibition of M22 Fab-peroxidase (competitor) binding to TSHR coated wells; test sample at 10 µg/mL diluted in HBD serum pool
[15] = biological target: TSH receptor (full length human TSHR) (human) (UniProt P16473); test: competition ELISA: inhibition of M22 Fab-peroxidase (competitor) binding to TSHR coated wells; test sample at 10 µg/mL diluted in assay buffer
[16] = biological target: full length wild type human TSHR (human) (UniProt P16473); test: TSHR260-AP bridge ELISA, wild type TSHR on wells; IgG at 0.5 µg/mL in HBD
[17] = biological target: TSHR (full length) coated on tubes (human) (UniProt P16473); test: inhibition of 125I-K1-18 Fab (competitor) binding to TSHR coated tubes; test sample 0.01 µg/mL in HBD serum
[18] = biological target: human thyroid stimulating hormone receptor (TSHR), full length (human) (UniProt P16473); test: 125I-K1-18 Fab competition, TSHR coated tubes; 0.01 µg/mL in HBD
[19] = biological target: TSH receptor (TSHR), full length human, coated on tubes (human) (UniProt P16473); test: inhibition of 125I-TSH binding to TSHR coated tubes; 0.1 µg/mL, diluted in HBD serum pool
[20] = biological target: thyroid stimulating hormone receptor (full length human TSHR) (human) (UniProt P16473); test: ELISA, inhibition of TSH-biotin binding to TSHR coated wells; 10 µg/mL, diluted in HBD serum pool
[21] = biological target: TSH receptor (TSHR), full length human, coated on tubes (human) (UniProt P16473); test: inhibition of 125I-K1-18 IgG (competitor) binding to TSHR coated tubes; test sample at 0.1 µg/mL in HBD serum pool
[22] = biological target: thyroid stimulating hormone receptor (full length human TSHR) (human) (UniProt P16473); test: ELISA: inhibition of M22 Fab-peroxidase (competitor) binding to TSHR coated wells; 0.01 µg/mL, diluted in HBD serum pool
[23] = biological target: thyroid stimulating hormone receptor (TSHR), full length, coated on tubes (human) (UniProt P16473); test: inhibition of 125I-TSH binding, TSHR coated tubes; antibody 0.01 µg/mL in assay buffer; mean of duplicate
[24] = biological target: TSH receptor (TSHR), full length human, coated on tubes (human) (UniProt P16473); test: inhibition of 125I-K1-18 IgG (competitor) binding to TSHR coated tubes; test sample at 1 µg/mL in HBD serum pool; mean of duplicate
[25] = biological target: human TSH receptor (full length) coated on ELISA plate wells (human) (UniProt P16473); test: TSH-biotin binding inhibition ELISA, TSHR coated wells; 100 µg/mL in HBD serum pool
[26] = biological target: TSH receptor (TSHR) coated on tubes (human) (UniProt P16473); test: inhibition of 125I-K1-70 IgG binding to TSHR coated tubes; sample 0.1 µg/mL in assay buffer
[27] = biological target: thyroid stimulating hormone receptor (full length human TSHR) (human) (UniProt P16473); test: ELISA, inhibition of TSH-biotin binding to TSHR coated wells; 10 µg/mL, diluted in assay buffer

- % inhibition of TSH-biotin binding [1]: -0.5%
- Inhibition of binding (%) [2]: 6.2%
Molecule: M22 IgG (antibody)

- Inhibition of binding (%) [3]: 2.2%
- Inhibition of binding (%) [4]: -5.9%
- Inhibition of binding (%) [5]: -5.8%
- Inhibition of binding (%) [6]: -1.2%
- Inhibition of binding (%) [7]: 2.6%
- Inhibition of binding (%) [8]: 4.9%
- % inhibition of TSH-biotin binding [9]: -2%
- Inhibition of binding (%) [10]: -1.8%
- Inhibition of binding (%) [11]: 2.3%
Molecule: 5B3 IgG (antibody)

- Inhibition of binding (%) [12]: 15.3%
- Inhibition of binding (%) [13]: 84.8%
- Inhibition of binding (%) [14]: 66.7%
- Inhibition of binding (%) [15]: 64.2%
- Mean absorbance at 405 nm (absorbance at 405 nm) [16]: 0.273
- Inhibition of binding (%) [17]: 2.3%
Molecule: 9D33 IgG (antibody)

- Inhibition of binding (%) [18]: 5.7%
- Inhibition of binding (%) [19]: 7%
- Inhibition of binding (%) [20]: 37.4%
- Inhibition of binding (%) [21]: 21.3%
- Inhibition of binding (%) [22]: 0.9%
- Inhibition of binding (%) [23]: 15.9%
- Inhibition of binding (%) [24]: 26.8%
- % inhibition of TSH-biotin binding [25]: 48.6%
- Inhibition of binding (%) [26]: 24.6%
- Inhibition of binding (%) [27]: 37.8%
B1: 5C9 IgG (antibody, from another filing, V domains shown)
VH: EVQLVESGGGLIQPGGSLRLSCAASGFTVSSNYMSWVRQAPGKGLEWVSVTYSGGSTSYADSVKGRFTISRDNSKNTLYLQMNSLRAEDTAVYYCARGGRYCSSISCYARSGCDYWGQGTLVTVSS
VL: AIQMTQSPSSLSASVGDRVTITCRASQSISNYLNWYQQKPGKAPKLLIYAASSLQSGVPSRFSGSGSGTDFTLTISSLQPEDFATYYCQQSYSSPSTTFGQGTKLEIK
